The values that follow come from patent US20240400696A1.

Substitutions are numbered along the chain they refer to.

The assay has as its target CD3. Nature of the assay: Octet, crude lysate.

Sequence of CD3 (P07766 23-126): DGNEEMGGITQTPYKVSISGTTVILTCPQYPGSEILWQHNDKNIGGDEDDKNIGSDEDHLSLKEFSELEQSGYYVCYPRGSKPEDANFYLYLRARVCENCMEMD

B1: AC3402 (bispecific antibody, V domains shown)
VH: EVQLLESGGGIVQPGGSLKLSCAASGFTFNTYAMNWVRQAPGKGLEWVARIRSKPNNYATYYADSVKDRFTISRDDSKNTVYLQMNNLKTEDTAVYYCVRHENFGNSYVSWFAHWGQGTLVTVSS
VL: ELVVTQEPSLTVSPGGTVTLTCRSSNGAVTSSNYANWVQQKPGQAPRGLIGGTNKRAPGTPARFSGSLLGGKAALTLSGVQPEDEAVYYCALWYPNLWVFGGGTKLTVL
The term Kd denotes the concentration at which binding is half-saturated. Higher therefore signals a looser complex. In the case of B1, the Kd worked out at 33.1 nM.

B2: AC3419 (bispecific antibody, V domains shown)
VH: B1 VH with P55Y, Y62Q
VL: B1 VL
In turn, B2 showed a dissociation constant Kd of 7.2 nM. Compared with the last molecule, the Kd is about 4.6-fold lower.

B3: AC3433 (bispecific antibody, V domains shown)
VH: B1 VH with P55Y
VL: B1 VL with L69Q
B3 came in with an equilibrium dissociation constant (Kd) of 4.6 nM.

B4: AC3420 (bispecific antibody, V domains shown)
VH: B1 VH with P55Y, Y62G
VL: B1 VL
Molecule B4 displayed a Kd of 8.3 nM.

B5: AC3404 (bispecific antibody, V domains shown)
VH: B1 VH with P55W
VL: B1 VL
Regarding B5, the Kd worked out at 10.5 nM.

B6: AC3407 (bispecific antibody, V domains shown)
VH: B1 VH with P55Y, N57D
VL: B1 VL
The molecule B6 yielded a dissociation constant Kd of 7.4 nM.

B7: AC3426 (bispecific antibody, V domains shown)
VH: B1 VH with P55Y, Y82G
VL: B1 VL
The molecule B7 yielded a Kd of 121 nM.

B8: AC3425 (bispecific antibody, V domains shown)
VH: B1 VH with P55Y, Y82D
VL: B1 VL
B8 showed a Kd of 9.8 nM.

B9: AC3415 (bispecific antibody, V domains shown)
VH: B1 VH with P55Y, Y61E
VL: B1 VL
In turn, B9 came in with a Kd of 183 nM.

B10: AC3421 (bispecific antibody, V domains shown)
VH: B1 VH with P55Y, Y62W
VL: B1 VL
B10: the Kd was 37.2 nM. This Kd is about 4.9-fold lower than that of the molecule before.

B11: AC3429 (bispecific antibody, V domains shown)
VH: B1 VH with P55Y, N87Q
VL: B1 VL
With B11, the dissociation constant (Kd) was 7.1 nM.

B12: AC3416 (bispecific antibody, V domains shown)
VH: B1 VH with P55Y, Y61T
VL: B1 VL
On to B12, for which the equilibrium dissociation constant (Kd) was 17.9 nM.

B13: AC3417 (bispecific antibody, V domains shown)
VH: B1 VH with P55Y, Y62D
VL: B1 VL
B13 showed an equilibrium dissociation constant (Kd) of 63.2 nM.

B14: AC3430 (bispecific antibody, V domains shown)
VH: B1 VH with P55Y, N87S
VL: B1 VL
Regarding B14, the Kd stood at 4.8 nM. This Kd is about 13-fold lower than that of the molecule before.

B15: AC3428 (bispecific antibody, V domains shown)
VH: B1 VH with P55Y, N87E
VL: B1 VL
In turn, B15 yielded a dissociation constant (Kd) of 5.9 nM.

B16: AC3434 (bispecific antibody, V domains shown)
VH: B1 VH with P55Y
VL: B1 VL with G70E
Regarding B16, the Kd turned out to be 4.9 nM.

B17: AC3408 (bispecific antibody, V domains shown)
VH: B1 VH with P55Y, N57E
VL: B1 VL
The molecule B17 gave a Kd of 8.3 nM. This Kd is about 1.7-fold higher than that of the molecule before.

B18: AC3412 (bispecific antibody, V domains shown)
VH: B1 VH with P55Y, A59G
VL: B1 VL
B18 came in with a Kd of 8.2 nM.

B19: AC3411 (bispecific antibody, V domains shown)
VH: B1 VH with P55Y, Y58W
VL: B1 VL
The molecule B19 came in with a Kd of 7.8 nM. The Kd values of the last two molecules are within 1.5-fold of each other.

B20: AC3409 (bispecific antibody, V domains shown)
VH: B1 VH with P55Y, Y58G
VL: B1 VL
Regarding B20, the dissociation constant Kd was determined as 11.3 nM.

B21: AC3414 (bispecific antibody, V domains shown)
VH: B1 VH with P55Y, Y61D
VL: B1 VL
Regarding B21, the dissociation constant Kd stood at 939 nM.

B22: AC3427 (bispecific antibody, V domains shown)
VH: B1 VH with P55Y, Y82S
VL: B1 VL
Molecule B22 yielded a Kd of 9.6 nM.

B23: AC3422 (bispecific antibody, V domains shown)
VH: B1 VH with P55Y, A63K
VL: B1 VL
In turn, B23 yielded a dissociation constant (Kd) of 8 nM.

B24: AC3410 (bispecific antibody, V domains shown)
VH: B1 VH with P55Y, Y58F
VL: B1 VL
Turning to B24, the Kd was 6.1 nM.

B25: AC3403 (bispecific antibody, V domains shown)
VH: B1 VH with P55T
VL: B1 VL
Consider B25, for which the dissociation constant Kd turned out to be 11.1 nM.

B26: AC3406 (bispecific antibody, V domains shown)
VH: B1 VH with P55Y, N56E
VL: B1 VL
Consider B26, for which the equilibrium dissociation constant (Kd) was 575 nM.

B27: AC3435 (bispecific antibody, V domains shown)
VH: B1 VH with P55Y
VL: B1 VL with L69D
In turn, B27 had a Kd of 6.1 nM. This Kd lies about 94-fold lower than the previous one.

B28: AC3431 (bispecific antibody, V domains shown)
VH: B1 VH with P55Y, N87Y
VL: B1 VL
Molecule B28 yielded a Kd of 5.2 nM.

B29: AC3423 (bispecific antibody, V domains shown)
VH: B1 VH with P55Y, A63P
VL: B1 VL
As for B29, the equilibrium dissociation constant (Kd) worked out at 8.2 nM.

B30: AC3413 (bispecific antibody, V domains shown)
VH: B1 VH with P55Y, A59T
VL: B1 VL
In turn, B30 showed a Kd of 10.7 nM.

B31: AC3418 (bispecific antibody, V domains shown)
VH: B1 VH with P55Y, Y62E
VL: B1 VL
As to B31, the Kd is 9.7 nM.

B32: AC3424 (bispecific antibody, V domains shown)
VH: B1 VH with P55Y, D68G
VL: B1 VL
The molecule B32 returned a Kd of 5.4 nM. This Kd is about 1.8-fold lower than that of the molecule before.
